Starred links: 1 amine or outer side, 2 acyl side, 3 side chain; linkers in the order of their positions; H or OH if unused. Non-standard residues stand in square brackets, D forms with d. Residues, ends and D or L forms follow the SMILES beside them. Groups on a side chain read outwards from the residue. No end group written: not given here. *: point of attachment. C18 diacid = O=C(O)CCCCCCCCCCCCCCCCC(=O)*; γGlu = O=C(O)[C@H](CCC(=O)[*:2])N[*:1]; AEEA = NCCOCCOCC(=O)O; Aib = CC(C)(N)C(=O)O
T1: GLP-2R (Homo sapiens, UniProt O95838)
T1 construct: expressed in transfected cells; host or cells: CHO-K1
T1 sequence (O95838 1-553): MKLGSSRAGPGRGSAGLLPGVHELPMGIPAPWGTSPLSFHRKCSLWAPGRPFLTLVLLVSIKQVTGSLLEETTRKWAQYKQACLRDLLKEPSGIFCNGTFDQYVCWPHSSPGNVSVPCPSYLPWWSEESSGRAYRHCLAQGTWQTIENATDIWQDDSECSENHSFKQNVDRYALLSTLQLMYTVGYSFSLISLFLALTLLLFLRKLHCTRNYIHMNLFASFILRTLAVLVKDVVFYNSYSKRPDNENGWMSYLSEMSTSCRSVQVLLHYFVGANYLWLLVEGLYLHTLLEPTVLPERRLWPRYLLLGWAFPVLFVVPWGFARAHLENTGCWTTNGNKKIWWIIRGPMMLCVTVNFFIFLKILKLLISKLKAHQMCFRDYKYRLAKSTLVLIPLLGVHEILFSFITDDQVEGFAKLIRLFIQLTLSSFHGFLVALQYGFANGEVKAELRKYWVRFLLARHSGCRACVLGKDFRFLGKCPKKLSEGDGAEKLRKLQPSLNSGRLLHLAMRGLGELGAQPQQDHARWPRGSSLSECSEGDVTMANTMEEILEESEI


Legend:
GLP-1R = molecular target: T2, GLP-1R (Homo sapiens, UniProt P43220); assay: Determination of GLP-1 activity: cAMP chemiluminescence (RLU) in CHO-K1 cell line stably expressing GLP-1R; assay type: cell-based; details: read-out: GLP-1 activity [EC50 (pmol)]
T2 construct: expressed in transfected cells; host or cells: CHO-K1
T2 sequence (P43220 24-463, species assumed): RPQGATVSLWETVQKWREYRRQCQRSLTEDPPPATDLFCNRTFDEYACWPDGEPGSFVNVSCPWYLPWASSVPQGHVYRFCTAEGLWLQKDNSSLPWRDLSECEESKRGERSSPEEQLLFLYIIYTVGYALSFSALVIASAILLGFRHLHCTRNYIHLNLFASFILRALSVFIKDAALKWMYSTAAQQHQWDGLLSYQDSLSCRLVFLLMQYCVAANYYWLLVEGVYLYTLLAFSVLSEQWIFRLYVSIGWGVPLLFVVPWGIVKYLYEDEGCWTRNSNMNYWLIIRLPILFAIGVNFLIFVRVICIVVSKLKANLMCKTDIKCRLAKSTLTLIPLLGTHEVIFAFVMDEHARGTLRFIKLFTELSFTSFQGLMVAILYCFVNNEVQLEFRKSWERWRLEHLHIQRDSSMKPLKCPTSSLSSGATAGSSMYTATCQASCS
Protocol: (§1) GLP-1R, under the stimulation of its specific agonist, can activate the intracellular adenylate cyclase pathway, and increase the level of cAMP, finally leading to the generation and release of insulin. The stimulation of the cell lines stably transfected with GLP-1R by the agonist to be tested can lead to rapid increase in the intracellular cAMP level, and the relative light units (RLUs) after stimulating the cells at each dose are determined by chemiluminescence method to calculate the EC50 of the agonist. This method for determining activity is commonly used for GLP-1 receptor agonist activity analysis at home and abroad.
CHO-K1 cell line stably expressing GLP-1R was stimulated with the agonist at different concentrations. The EC50 value of the agonist was calculated by determining the relative light units after stimulating the cells at each dose.

GLP-2R = molecular target: T1, GLP-2R; assay: Determination of GLP-2 activity: cAMP chemiluminescence (RLU) in CHO-K1 cell line stably expressing GLP-2R; assay type: cell-based; details: read-out: GLP-2 activity [EC50 (nmol)]
Protocol: as §1, with “GLP-2R, under” for “GLP-1R, under”, “for GLP-2” for “for GLP-1”
CHO-K1 cell line stably expressing GLP-2R was stimulated with the agonist at different concentrations. The EC50 value of the agonist was calculated by determining the relative light units after stimulating the cells at each dose.

[1] = molecular target: glucagon-like peptide-1 (GLP-1) receptor
[2] = molecular target: glucagon-like peptide-2 (GLP-2) receptor

Row | Molecule | EC50 (GLP-1R) | EC50 (GLP-2R) | GLP-1 activity [EC50 (pmol)] [1] | GLP-2 activity [EC50 (nmol)] [2]
1 | CC[C@H](C)[C@H](NC(=O)[C@H](Cc1ccccc1)NC(=O)[C@H](CC(=O)O)NC(=O)[C@H](CCCNC(=N)N)NC(=O)[C@H](C)NC(=O)[C@H](C)NC(=O)[C@H](CCC(N)=O)NC(=O)[C@H](CCCCNC(=O)CC[C@H](NC(=O)CCCCCCCCCCCCCCCCC(=O)O)C(=O)O)NC(=O)[C@H](CC(=O)O)NC(=O)[C@H](CC(C)C)NC(=O)[C@@H](NC(=O)[C@@H](NC(=O)[C@H](C)NC(=O)[C@H](CC(C)C)NC(=O)[C@H](CCC(=O)O)NC(=O)[C@H](CO)NC(=O)[C@@H](NC(=O)[C@H](Cc1ccccc1)NC(=O)[C@H](CO)NC(=O)CNC(=O)[C@H](CCC(=O)O)NC(=O)C(C)(C)NC(=O)[C@@H](N)Cc1c[nH]cn1)[C@@H](C)O)[C@@H](C)O)[C@@H](C)CC)C(=O)N[C@@H](C)C(=O)N[C@@H](Cc1c[nH]c2ccccc12)C(=O)N[C@@H](CC(C)C)C(=O)N[C@H](C(=O)N[C@@H](CCC(N)=O)C(=O)N[C@@H](Cc1c[nH]cn1)C(=O)N[C@@H](CCCCN)C(=O)N[C@H](C(=O)N[C@H](C(=O)N[C@@H](CC(=O)O)C(N)=O)[C@@H](C)O)[C@@H](C)CC)[C@@H](C)CC [Compound 1, His-Aib-Glu-Gly-Ser-Phe-Thr-Ser-Glu-Leu-Ala-Thr-Ile-Leu-Asp-Lys(γGlu-octadecanedioic acid-Gln-Ala-Ala-Arg-Asp-Phe-Ile-Ala-Trp-Leu-Ile-Gln-His-Lys-Ile-Thr-Asp-NH2] (H-H[Aib]EGSFTSELATILDK([γGlu-C18 diacid])QAARDFIAWLIQHKITD-NH2) | 0.0947 nM | 6.04 nM | – | –
2 | CC[C@H](C)[C@H](NC(=O)[C@H](Cc1ccccc1)NC(=O)[C@H](CC(=O)O)NC(=O)[C@H](CCCNC(=N)N)NC(=O)[C@H](C)NC(=O)[C@H](C)NC(=O)[C@H](CCC(N)=O)NC(=O)[C@H](CCCCNC(=O)COCCOCCNC(=O)CC[C@H](NC(=O)CCCCCCCCCCCCCCCCC(=O)O)C(=O)O)NC(=O)[C@H](CC(=O)O)NC(=O)[C@H](CC(C)C)NC(=O)[C@@H](NC(=O)[C@@H](NC(=O)[C@H](C)NC(=O)[C@H](CC(C)C)NC(=O)[C@H](CCC(=O)O)NC(=O)[C@H](CO)NC(=O)[C@@H](NC(=O)[C@H](Cc1ccccc1)NC(=O)[C@H](CO)NC(=O)CNC(=O)[C@H](CCC(=O)O)NC(=O)C(C)(C)NC(=O)[C@@H](N)Cc1c[nH]cn1)[C@@H](C)O)[C@@H](C)O)[C@@H](C)CC)C(=O)N[C@@H](C)C(=O)N[C@@H](Cc1c[nH]c2ccccc12)C(=O)N[C@@H](CC(C)C)C(=O)N[C@H](C(=O)N[C@@H](CCC(N)=O)C(=O)N[C@@H](Cc1c[nH]cn1)C(=O)N[C@@H](CCCCN)C(=O)N[C@H](C(=O)N[C@H](C(=O)N[C@@H](CC(=O)O)C(N)=O)[C@@H](C)O)[C@@H](C)CC)[C@@H](C)CC [Compound 3, His-Aib-Glu-Gly-Ser-Phe-Thr-Ser-Glu-Leu-Ala-Thr-Ile-Leu-Asp-Lys(AEEA-γGlu-octadecanedioic acid)-Gln-Ala-Ala-Arg-Asp-Phe-Ile-Ala-Trp-Leu-Ile-Gln-His-Lys-Ile-Thr-Asp-NH2] (H-H[Aib]EGSFTSELATILDK([AEEA-γGlu-C18 diacid])QAARDFIAWLIQHKITD-NH2) | 0.0601 nM | 4.7 nM | – | –
3 | H[Aib]EGSFTSELATILDK([γGlu-C18 diacid])QAARDFIAWLIQHKITD-NH2 (N-terminus assumed; SMILES CC[C@H](C)[C@H](NC(=O)[C@H](Cc1ccccc1)NC(=O)[C@H](CC(=O)O)NC(=O)[C@H](CCCNC(=N)N)NC(=O)[C@H](C)NC(=O)[C@H](C)NC(=O)[C@H](CCC(N)=O)NC(=O)[C@H](CCCCNC(=O)CC[C@H](NC(=O)CCCCCCCCCCCCCCCCC(=O)O)C(=O)O)NC(=O)[C@H](CC(=O)O)NC(=O)[C@H](CC(C)C)NC(=O)[C@@H](NC(=O)[C@@H](NC(=O)[C@H](C)NC(=O)[C@H](CC(C)C)NC(=O)[C@H](CCC(=O)O)NC(=O)[C@H](CO)NC(=O)[C@@H](NC(=O)[C@H](Cc1ccccc1)NC(=O)[C@H](CO)NC(=O)CNC(=O)[C@H](CCC(=O)O)NC(=O)C(C)(C)NC(=O)[C@@H](N)Cc1c[nH]cn1)[C@@H](C)O)[C@@H](C)O)[C@@H](C)CC)C(=O)N[C@@H](C)C(=O)N[C@@H](Cc1c[nH]c2ccccc12)C(=O)N[C@@H](CC(C)C)C(=O)N[C@H](C(=O)N[C@@H](CCC(N)=O)C(=O)N[C@@H](Cc1c[nH]cn1)C(=O)N[C@@H](CCCCN)C(=O)N[C@H](C(=O)N[C@H](C(=O)N[C@@H](CC(=O)O)C(N)=O)[C@@H](C)O)[C@@H](C)CC)[C@@H](C)CC) [Compound 1] | – | – | 94.7 pmol | 6.04 nmol
4 | H[Aib]EGSFTSELATILDK([PEG3CH2CO-γGlu-C18 diacid])QAARDFIAWLIQHKITD-NH2 [Compound 4] | – | – | 60 pmol | 4.33 nmol
5 | H[Aib]EGSFTSELATILDK([PEG4CH2CO-γGlu-C18 diacid])QAARDFIAWLIQHKITD-NH2 [Compound 5] | – | – | 72.8 pmol | 5.54 nmol
6 | H[Aib]EGSFTSELATILDK([PEG5CH2CO-γGlu-C18 diacid])QAARDFIAWLIQHKITD-NH2 [Compound 6] | – | – | 79.5 pmol | 4.62 nmol
7 | H[Aib]EGSFTSELATILDK([PEG1CH2CO-γGlu-C18 diacid])QAARDFIAWLIQHKITD-NH2 [Compound 2] | – | – | 68.7 pmol | 5.51 nmol
8 | H[Aib]EGSFTSELATILDK([AEEA-γGlu-C18 diacid])QAARDFIAWLIQHKITD-NH2 (N-terminus assumed; SMILES CC[C@H](C)[C@H](NC(=O)[C@H](Cc1ccccc1)NC(=O)[C@H](CC(=O)O)NC(=O)[C@H](CCCNC(=N)N)NC(=O)[C@H](C)NC(=O)[C@H](C)NC(=O)[C@H](CCC(N)=O)NC(=O)[C@H](CCCCNC(=O)COCCOCCNC(=O)CC[C@H](NC(=O)CCCCCCCCCCCCCCCCC(=O)O)C(=O)O)NC(=O)[C@H](CC(=O)O)NC(=O)[C@H](CC(C)C)NC(=O)[C@@H](NC(=O)[C@@H](NC(=O)[C@H](C)NC(=O)[C@H](CC(C)C)NC(=O)[C@H](CCC(=O)O)NC(=O)[C@H](CO)NC(=O)[C@@H](NC(=O)[C@H](Cc1ccccc1)NC(=O)[C@H](CO)NC(=O)CNC(=O)[C@H](CCC(=O)O)NC(=O)C(C)(C)NC(=O)[C@@H](N)Cc1c[nH]cn1)[C@@H](C)O)[C@@H](C)O)[C@@H](C)CC)C(=O)N[C@@H](C)C(=O)N[C@@H](Cc1c[nH]c2ccccc12)C(=O)N[C@@H](CC(C)C)C(=O)N[C@H](C(=O)N[C@@H](CCC(N)=O)C(=O)N[C@@H](Cc1c[nH]cn1)C(=O)N[C@@H](CCCCN)C(=O)N[C@H](C(=O)N[C@H](C(=O)N[C@@H](CC(=O)O)C(N)=O)[C@@H](C)O)[C@@H](C)CC)[C@@H](C)CC) [Compound 3] | – | – | 60.1 pmol | 4.7 nmol

Reference: patent publication US20250154226A1, “LONG-ACTING GLP-1/GLP-2 DUAL AGONIST COMPOUND” (CHENGDU AODA BIOTECHNOLOGY CO., LTD, priority 2022, published 2025)
